Laboratory results taken from paper PMC10786891, “Massively parallel profiling of RNA-targeting CRISPR-Cas13d”.

T1: EsCas13d, nuclease-dead (Eubacterium siraeum, UniProt B0MS50, R295A;H300A;R849A;H854A)
T1 sequence: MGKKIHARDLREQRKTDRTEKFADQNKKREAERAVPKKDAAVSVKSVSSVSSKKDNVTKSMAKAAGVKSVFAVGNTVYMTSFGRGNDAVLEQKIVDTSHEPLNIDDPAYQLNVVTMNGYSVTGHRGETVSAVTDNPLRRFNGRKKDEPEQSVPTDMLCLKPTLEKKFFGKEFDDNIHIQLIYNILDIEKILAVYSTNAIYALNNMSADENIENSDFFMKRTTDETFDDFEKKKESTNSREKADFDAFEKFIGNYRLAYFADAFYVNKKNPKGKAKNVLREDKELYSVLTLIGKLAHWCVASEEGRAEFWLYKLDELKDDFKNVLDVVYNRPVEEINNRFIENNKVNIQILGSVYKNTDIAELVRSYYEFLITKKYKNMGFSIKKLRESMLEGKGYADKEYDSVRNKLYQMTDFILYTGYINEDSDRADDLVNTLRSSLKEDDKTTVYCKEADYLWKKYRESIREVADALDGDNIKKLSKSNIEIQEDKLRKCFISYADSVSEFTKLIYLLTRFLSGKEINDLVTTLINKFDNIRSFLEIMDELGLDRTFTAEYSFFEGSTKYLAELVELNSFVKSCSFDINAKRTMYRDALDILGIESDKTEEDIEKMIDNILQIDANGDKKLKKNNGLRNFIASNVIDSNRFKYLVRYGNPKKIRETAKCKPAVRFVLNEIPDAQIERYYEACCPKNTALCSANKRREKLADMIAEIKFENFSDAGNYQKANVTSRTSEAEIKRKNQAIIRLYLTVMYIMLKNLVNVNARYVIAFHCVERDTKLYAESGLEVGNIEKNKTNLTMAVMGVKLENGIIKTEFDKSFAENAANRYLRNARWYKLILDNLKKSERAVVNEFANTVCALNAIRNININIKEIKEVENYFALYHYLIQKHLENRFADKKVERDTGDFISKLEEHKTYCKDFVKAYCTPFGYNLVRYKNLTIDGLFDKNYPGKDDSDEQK


Biological target: T1, EsCas13d, nuclease-dead
Test: crRNA (strand 1, pre-loaded); Mg2+; 40 mM Tris-HCl pH 7.5, 150 mM NaCl, 6 mM MgCl2, 1 mM DTT, 0.1% Tween-20, 0.2 mg/ml BSA; 25 C; 10 min per concentration, then washed
Conditions: tags: His6-TwinStrep-SUMO cleaved; N-terminal SNAP kept (SNAP-Surface 488); label: 3' end held by stalled T7 RNA polymerase

Row | Binder | Kd [nM]
1 | target 1 MT 5'PFS CUU 3'PFS CUC (mixed) RNA 1: CACCCGUGCAAAAAUGCAGGGGUCUAAAACUGAGCGGAUAACCUCUCUAUGG RNA 2: GGGAAUGGAUCCACAUCUACGAAUUCCUUCCAUAGAGAGGUUAUCCGCUCACUCAGAUCGGAAGAGCACACGU | ~15
2 | target 1 MT 5'PFS ACA 3'PFS UUA (mixed) RNA 1: CACCCGUGCAAAAAUGCAGGGGUCUAAAACUGAGCGGAUAACCUCUCUAUGG RNA 2: GGGAAUGGAUCCACAUCUACGAAUUCACACCAUAGAGAGGUUAUCCGCUCAUUAAGAUCGGAAGAGCACACGU | 8.85 ± 2.9
3 | target 1 MT 5'PFS ACA 3'PFS UUC (mixed) RNA 1: CACCCGUGCAAAAAUGCAGGGGUCUAAAACUGAGCGGAUAACCUCUCUAUGG RNA 2: GGGAAUGGAUCCACAUCUACGAAUUCACACCAUAGAGAGGUUAUCCGCUCAUUCAGAUCGGAAGAGCACACGU | 12.7 ± 4.2
4 | target 1 MT 5'PFS AGG 3'PFS AGC (mixed) RNA 1: CACCCGUGCAAAAAUGCAGGGGUCUAAAACUGAGCGGAUAACCUCUCUAUGG RNA 2: GGGAAUGGAUCCACAUCUACGAAUUCAGGCCAUAGAGAGGUUAUCCGCUCAAGCAGAUCGGAAGAGCACACGU | ~52
5 | target 1 MT 5'PFS AGG 3'PFS AGA (mixed) RNA 1: CACCCGUGCAAAAAUGCAGGGGUCUAAAACUGAGCGGAUAACCUCUCUAUGG RNA 2: GGGAAUGGAUCCACAUCUACGAAUUCAGGCCAUAGAGAGGUUAUCCGCUCAAGAAGAUCGGAAGAGCACACGU | 37.5 ± 8.5
6 | target 1 MT 5'PFS AGG 3'PFS AGG (mixed) RNA 1: CACCCGUGCAAAAAUGCAGGGGUCUAAAACUGAGCGGAUAACCUCUCUAUGG RNA 2: GGGAAUGGAUCCACAUCUACGAAUUCAGGCCAUAGAGAGGUUAUCCGCUCAAGGAGAUCGGAAGAGCACACGU | ~110
7 | target 1 insU 3' of 22,insC 3' of 22 (mixed) RNA 1: CACCCGUGCAAAAAUGCAGGGGUCUAAAACUGAGCGGAUAACCUCUCUAUGG RNA 2: GGGAAUGGAUCCACAUCUACGAAUUCGUACUCCAUAGAGAGGUUAUCCGCUCACCGAGAUCGGAAGAGCACACGU | 31.6 ± 1.2
8 | target 1 MT 5'PFS AGA 3'PFS AUA (mixed) RNA 1: CACCCGUGCAAAAAUGCAGGGGUCUAAAACUGAGCGGAUAACCUCUCUAUGG RNA 2: GGGAAUGGAUCCACAUCUACGAAUUCAGACCAUAGAGAGGUUAUCCGCUCAAUAAGAUCGGAAGAGCACACGU | 45 ± 15
9 | target 1 MT 5'PFS AGA 3'PFS AUC (mixed) RNA 1: CACCCGUGCAAAAAUGCAGGGGUCUAAAACUGAGCGGAUAACCUCUCUAUGG RNA 2: GGGAAUGGAUCCACAUCUACGAAUUCAGACCAUAGAGAGGUUAUCCGCUCAAUCAGAUCGGAAGAGCACACGU | 49 ± 17
10 | target 1 MT 5'PFS GGU 3'PFS CUA (mixed) RNA 1: CACCCGUGCAAAAAUGCAGGGGUCUAAAACUGAGCGGAUAACCUCUCUAUGG RNA 2: GGGAAUGGAUCCACAUCUACGAAUUCGGUCCAUAGAGAGGUUAUCCGCUCACUAAGAUCGGAAGAGCACACGU | 64.5 ± 27.5
11 | target 1 MT 5'PFS ACA 3'PFS UUU (mixed) RNA 1: CACCCGUGCAAAAAUGCAGGGGUCUAAAACUGAGCGGAUAACCUCUCUAUGG RNA 2: GGGAAUGGAUCCACAUCUACGAAUUCACACCAUAGAGAGGUUAUCCGCUCAUUUAGAUCGGAAGAGCACACGU | 5.35 ± 1.15
12 | target 1 MT 5'PFS GGC 3'PFS AAC (mixed) RNA 1: CACCCGUGCAAAAAUGCAGGGGUCUAAAACUGAGCGGAUAACCUCUCUAUGG RNA 2: GGGAAUGGAUCCACAUCUACGAAUUCGGCCCAUAGAGAGGUUAUCCGCUCAAACAGAUCGGAAGAGCACACGU | 39 ± 13.5
13 | target 1 MT 5'PFS GGC 3'PFS AAA (mixed) RNA 1: CACCCGUGCAAAAAUGCAGGGGUCUAAAACUGAGCGGAUAACCUCUCUAUGG RNA 2: GGGAAUGGAUCCACAUCUACGAAUUCGGCCCAUAGAGAGGUUAUCCGCUCAAAAAGAUCGGAAGAGCACACGU | 52 ± 14
14 | target 1 MT 5'PFS AAG 3'PFS UGU (mixed) RNA 1: CACCCGUGCAAAAAUGCAGGGGUCUAAAACUGAGCGGAUAACCUCUCUAUGG RNA 2: GGGAAUGGAUCCACAUCUACGAAUUCAAGCCAUAGAGAGGUUAUCCGCUCAUGUAGAUCGGAAGAGCACACGU | 35.5 ± 10.5
15 | target 1 MT 5'PFS CCU 3'PFS ACG (mixed) RNA 1: CACCCGUGCAAAAAUGCAGGGGUCUAAAACUGAGCGGAUAACCUCUCUAUGG RNA 2: GGGAAUGGAUCCACAUCUACGAAUUCCCUCCAUAGAGAGGUUAUCCGCUCAACGAGAUCGGAAGAGCACACGU | 21 ± 6
16 | target 1 MT 5'PFS GCA 3'PFS UGC (mixed) RNA 1: CACCCGUGCAAAAAUGCAGGGGUCUAAAACUGAGCGGAUAACCUCUCUAUGG RNA 2: GGGAAUGGAUCCACAUCUACGAAUUCGCACCAUAGAGAGGUUAUCCGCUCAUGCAGAUCGGAAGAGCACACGU | 15.8 ± 2.95
17 | target 1 MT 5'PFS GCA 3'PFS UGA (mixed) RNA 1: CACCCGUGCAAAAAUGCAGGGGUCUAAAACUGAGCGGAUAACCUCUCUAUGG RNA 2: GGGAAUGGAUCCACAUCUACGAAUUCGCACCAUAGAGAGGUUAUCCGCUCAUGAAGAUCGGAAGAGCACACGU | 16.4 ± 2.25
18 | target 1 U10G,U19C (mixed) RNA 1: CACCCGUGCAAAAAUGCAGGGGUCUAAAACUGAGCGGAUAACCUCUCUAUGG RNA 2: GGGAAUGGAUCCACAUCUACGAAUUCGUACCACAGAGAGGUGAUCCGCUCACCGAGAUCGGAAGAGCACACGU | 48 ± 8
19 | target 1 MT 5'PFS AAG 3'PFS UGC (mixed) RNA 1: CACCCGUGCAAAAAUGCAGGGGUCUAAAACUGAGCGGAUAACCUCUCUAUGG RNA 2: GGGAAUGGAUCCACAUCUACGAAUUCAAGCCAUAGAGAGGUUAUCCGCUCAUGCAGAUCGGAAGAGCACACGU | 51.5 ± 25
20 | target 1 MT 5'PFS GGC 3'PFS AAU (mixed) RNA 1: CACCCGUGCAAAAAUGCAGGGGUCUAAAACUGAGCGGAUAACCUCUCUAUGG RNA 2: GGGAAUGGAUCCACAUCUACGAAUUCGGCCCAUAGAGAGGUUAUCCGCUCAAAUAGAUCGGAAGAGCACACGU | 44.5 ± 18.5
21 | target 1 MT 5'PFS CCU 3'PFS ACU (mixed) RNA 1: CACCCGUGCAAAAAUGCAGGGGUCUAAAACUGAGCGGAUAACCUCUCUAUGG RNA 2: GGGAAUGGAUCCACAUCUACGAAUUCCCUCCAUAGAGAGGUUAUCCGCUCAACUAGAUCGGAAGAGCACACGU | 16.5 ± 5.5
22 | target 1 MT 5'PFS GCA 3'PFS UGU (mixed) RNA 1: CACCCGUGCAAAAAUGCAGGGGUCUAAAACUGAGCGGAUAACCUCUCUAUGG RNA 2: GGGAAUGGAUCCACAUCUACGAAUUCGCACCAUAGAGAGGUUAUCCGCUCAUGUAGAUCGGAAGAGCACACGU | 35 ± 7.5
23 | target 1 MT 5'PFS GUU 3'PFS AAU (mixed) RNA 1: CACCCGUGCAAAAAUGCAGGGGUCUAAAACUGAGCGGAUAACCUCUCUAUGG RNA 2: GGGAAUGGAUCCACAUCUACGAAUUCGUUCCAUAGAGAGGUUAUCCGCUCAAAUAGAUCGGAAGAGCACACGU | 22 ± 4.5
24 | target 1 MT 5'PFS CUG 3'PFS ACU (mixed) RNA 1: CACCCGUGCAAAAAUGCAGGGGUCUAAAACUGAGCGGAUAACCUCUCUAUGG RNA 2: GGGAAUGGAUCCACAUCUACGAAUUCCUGCCAUAGAGAGGUUAUCCGCUCAACUAGAUCGGAAGAGCACACGU | 5.55 ± 1.45
25 | target 1 MT 5'PFS UAU 3'PFS UCG (mixed) RNA 1: CACCCGUGCAAAAAUGCAGGGGUCUAAAACUGAGCGGAUAACCUCUCUAUGG RNA 2: GGGAAUGGAUCCACAUCUACGAAUUCUAUCCAUAGAGAGGUUAUCCGCUCAUCGAGAUCGGAAGAGCACACGU | 29 ± 7
26 | target 1 MT 5'PFS GUU 3'PFS UCG (mixed) RNA 1: CACCCGUGCAAAAAUGCAGGGGUCUAAAACUGAGCGGAUAACCUCUCUAUGG RNA 2: GGGAAUGGAUCCACAUCUACGAAUUCGUUCCAUAGAGAGGUUAUCCGCUCAUCGAGAUCGGAAGAGCACACGU | 18.5 ± 2.7
27 | target 1 MT 5'PFS GUU 3'PFS UCC (mixed) RNA 1: CACCCGUGCAAAAAUGCAGGGGUCUAAAACUGAGCGGAUAACCUCUCUAUGG RNA 2: GGGAAUGGAUCCACAUCUACGAAUUCGUUCCAUAGAGAGGUUAUCCGCUCAUCCAGAUCGGAAGAGCACACGU | 14.8 ± 3.65
28 | target 1 MT 5'PFS GUU 3'PFS UCA (mixed) RNA 1: CACCCGUGCAAAAAUGCAGGGGUCUAAAACUGAGCGGAUAACCUCUCUAUGG RNA 2: GGGAAUGGAUCCACAUCUACGAAUUCGUUCCAUAGAGAGGUUAUCCGCUCAUCAAGAUCGGAAGAGCACACGU | 15.6 ± 2.1
